Test results published in paper PMC13216289 (NPJ Vaccines, 2026).
Changes are numbered by the printed parent chain.

B1: Ab34, recombinant cattle IgG1/lambda antibody (antibody, V domains shown)
VH: QVQLRESGPSLVKPSQTLSLTCTVSGFSLTDVHVGWVRQTPGKALEWVGVICNRGAIGYNPALESRLSITEDNSKSQVSLSLSSVTTADTATYYCASSCRTEGDVGGDCDSDHFFCAWGQGLLVTVSS
VL: SYELTQPTSVSVALGQTAKITCSGDLLDRQYAQWYQQKPGQGPVRVIYKDSERPSGISDRFSGSSSGKTATLTVSGAQTEDEADYYCHSADSSHYPVFGSGSTLTVL
notes: copies: 2 + 2
B2: Fab34, recombinant cattle Fab of Ab34 (Fab, V domains shown)
VH: B1 VH
VL: B1 VL
B3: Ab17, recombinant cattle IgG1/lambda antibody (antibody, V domains shown)
VH: QVQLRESGPSSLKPSQTLSLTCAVSGFSLSTYAVGWVRQAPGKALEWVGDITSSGDTFYNPALKSRFSITKDNSKNQVSLSVGSVTPEDTATFYCTRLTCGDDCSTAWHNFDAWGQGLLVTVSS
VL: SYELTQPTSVSVALGQTAKITCSGDLLDVQYTQWYQQKPGQGPVRVIYKDSERPSGISDRFSGSSSGKTATLIISGAQTEDEADYYCQSTDSSQYGIFGRGTTLTVL
notes: copies: 2 + 2
B4: Fab49, recombinant cattle Fab of Ab49 (Fab, V domains shown)
VH: QVQLRESGPSLVKPSQTLSLTCTVSGFSLTNYAVGWVRQAPGKAIQSLSIISTTGDTYYNPALKSRLSITKDNSKSQVSLSVSSVAPEDTATYYCVKFCGNADSAGHGWGCDYGDNENWGQGLLVTVSS
VL: B1 VL with R29E, A32T, V74I, H88Q, A90F, D91Y, H94T, Y95D, S102T
B5: Fab17, recombinant cattle Fab of Ab17 (Fab, V domains shown)
VH: B3 VH
VL: B3 VL
B6: Ab49, recombinant cattle IgG1/lambda antibody (antibody, V domains shown)
VH: B4 VH
VL: B1 VL with R29E, A32T, V74I, H88Q, A90F, D91Y, H94T, Y95D, S102T
notes: copies: 2 + 2

Tests used:
Experiment in all cases: BLI
Details in all cases: both partners purified
[1] = biological target: T1, FMDV O1/Manisa/TUR/69 virus-like particle, VP2 93C stabilised (Foot-and-mouth disease virus …, UniProt Q6PMW3, stabilised)
T1 construct: copies: 60 + 60 + 60 + 60

[2] = biological target: T2, FMDV A22/IRQ/24/64 virus-like particle, VP2 93C stabilised (FMDV serotype A, A22/IRQ/24/64, stabilised)
T2 construct: copies: 60 + 60 + 60 + 60

[3] = biological target: T1, FMDV O1/Manisa/TUR/69 virus-like …; remark: listed apart in the source
[4] = biological target: T2, FMDV A22/IRQ/24/64 virus-like particle, …; remark: listed apart in the source

| Binder | Kd [1] | Kd [2] | Kd [3] | Kd [4] | koff [1] | kon [1] | koff [2] | kon [2] | koff [3] | kon [3] | koff [4] | kon [4] |
| --- | --- | --- | --- | --- | --- | --- | --- | --- | --- | --- | --- | --- |
| B1 | 0.00904 nM | 0.0093 nM | – | – | – | – | – | – | – | – | – | – |
| B2 | – | – | 12.3 nM | 9.9 nM | – | – | – | – | – | – | – | – |
| B3 | 0.021 nM | 0.246 nM | – | – | 7.96e-06 s⁻¹ | 303000 M⁻¹ s⁻¹ | 0.000164 s⁻¹ | 685000 M⁻¹ s⁻¹ | – | – | – | – |
| B4 | – | – | 6.37 nM | 4.44 nM | – | – | – | – | 0.0029 s⁻¹ | 553000 M⁻¹ s⁻¹ | 0.00349 s⁻¹ | 749000 M⁻¹ s⁻¹ |
| B5 | – | – | 5.93 nM | 19.6 nM | – | – | – | – | 0.0117 s⁻¹ | 1.19e+06 M⁻¹ s⁻¹ | 0.0298 s⁻¹ | 1.52e+06 M⁻¹ s⁻¹ |
| B6 | 0.156 nM | 0.114 nM | – | – | 4.9e-05 s⁻¹ | 257000 M⁻¹ s⁻¹ | 3.61e-05 s⁻¹ | 389000 M⁻¹ s⁻¹ | – | – | – | – |
